Consider one molecule from article PMC2712087 (PLoS Pathogens, 2009).

For assay [1], the target named is T1, FLAG-p53 wild type, from 293T cells (human, UniProt P04637 1-393).
T1 construct: also called FLAG-p53 (WT); p53 protein (WT); source: 293T, transfected, with or without ionizing radiation (20 Gy), purified on anti-FLAG antibody resin
Briefly: pull-down. The settings on record: both partners purified.

Assay [2] concerns the target T2, His-p53 wild-type (human, UniProt P04637 1-393).
T2 construct: also called His-tagged p53; WT p53; source: E. coli, purified (Ni-NTA agarose); not shown: His, N-terminal, kept
Description: pull-down. The settings on record: both partners purified.

B1: purified recombinant BZLF1 protein (natural protein)
chain: MMDPNSTSEDVKFTPDPYQVPFVQAFDQATRVYQDLGGPSQAPLPCVLWPVLPEPLPQGQLTAYHVSTAPTGSWFSAPQPAPENAYQAYAAPQLFPVSDITQNQQTNQAGGEAPQPGDNSTVQTAAAVVFACPGANQGQQLADIGVPQPAPVAAPARRTRKPQQPESLEECDSELEIKRYKNRVASRKCRAKFKQLLQHYREVAAAKSSENDRLRLLLKQMCPSLDVDSIIPRTPDVLHEDLLNF
notes: also called EBV BZLF1 protein; source: Hi-Five cells infected with recombinant baculovirus AcBZLF1, purified (extracted from nuclei with 0.6 M NaCl; purity more than 90%)
As to B1, the binding result in assay [1] and in assay [2] was “binds” in each case.
